This note sets out measurements from article PMC7736792.

For orientation: Kd means the equilibrium constant for the complex coming apart. Lower therefore signals higher affinity.

The subject of this data set is p44 (in p44/p62 complex);p62 (in p44/p62 complex) (Chaetomium thermophilum;Chaetomium thermophilum). As to the kind of experiment: fluorescence anisotropy. To be noted: 20 mM HEPES pH 7.5, 30 mM KCl, 5 mM MgCl2, 1 mM TCEP, 5 nM DNA, room temperature.
“TTTTTTTTTTTTTTTCCCGGCCATGCGAAGCATGGCCGGGTTTTT [open fork hairpin]” displayed a Kd of 0.21 µM.

“GACTACGTACTGTTACGGCTCCATCTCTACCGCAATCAGGCCAGATCTGC [undamaged ssDNA 50 nt]” came in with a Kd of 0.84 µM.

“GACTACGTACTGTTACGGCTCCATCTCTACCGCAATCAGGCCAGATCTGC / GCAGATCTGGCCTGATTGCGGTAGCGATGGAGCCGTAACAGTACGTAGTC [undamaged dsDNA 50 bp]” came in with a Kd of 1.18 µM.
